T1: human KLK5 (human, UniProt Q9Y337 67-293)
T1 sequence: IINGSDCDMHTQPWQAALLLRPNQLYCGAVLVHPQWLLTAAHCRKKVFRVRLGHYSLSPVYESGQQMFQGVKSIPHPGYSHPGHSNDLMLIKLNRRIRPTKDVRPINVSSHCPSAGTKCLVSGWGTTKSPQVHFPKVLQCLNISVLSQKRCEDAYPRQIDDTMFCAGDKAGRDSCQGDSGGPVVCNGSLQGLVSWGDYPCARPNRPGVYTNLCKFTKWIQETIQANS

T2: cynomolgus monkey KLK5 (cynomolgus monkey, UniProt Q9Y337 67-293 (human entry))
T2 chain: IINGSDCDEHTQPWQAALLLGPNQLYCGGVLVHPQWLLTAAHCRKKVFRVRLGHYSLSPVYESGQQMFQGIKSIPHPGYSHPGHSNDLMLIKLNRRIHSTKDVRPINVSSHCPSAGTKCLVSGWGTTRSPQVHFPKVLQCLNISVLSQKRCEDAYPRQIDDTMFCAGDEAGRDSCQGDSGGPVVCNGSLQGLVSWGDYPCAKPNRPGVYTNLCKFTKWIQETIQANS

B1: hu10C5VY (antibody, V domains shown)
VH: EVQLVESGGGLVQPGGSLRLSCAASGFSLSSYGVTWVRQAPGKGLEWIGYITSVYGVSYYASWAKSRSTISRDTSKNTVYLQMGSLRAEDMAVYYCARENPDYGYAYDAWGQGTTVTVSS
VL: AIRMTQSPSSFSASTGDRVTITCQASESISNELSWYQQKPGKAPKLLIYYASTLASGVPSRFSGSGSGTDFTLTISSLQPEDFATYYCAQGYGSSGVENVFGGGTKVEIK
B2: chimeric rb.14H11c-hIgG1 (antibody, V domains shown)
VH: QSLEESGGDLVKPGASLTLTCTASGFSFSSSYYMSWVRQAPGKGLEWIASIYAGSSGAPYYAGWAKGRFTISKTSSTAVTLQMSSLTAADTATYFCAREGFAETGGYGYAAYFNLWGPGTLVTVSS
VL: AIEMTQSPPSLSASVGETVRIRCLASEDIASSVSWYQQKPGKPPTLLIYGASNLESGVPPRFTGSGSGTDYTLTIGGVQAEDAATYYCLGGYSYSSTGTAFGAGTKVEIK
notes: Rabbit variable domains (14H11 with C35a to S in VH) on human IgG1; also called Chimeric 14H11c
B3: hu.10C5VY.hu14H11c.L2H11 WT (bispecific antibody, human IgG1, kappa, N297G)
heavy 1: not shown
light 1: DIQMTQSPSSLSASVGDRVTITCLASEDIASSVSWYQKKPGKAPKLLIYGASNLESGVPSRFSGSGSGTDYTLTISSLQPEDFATYYCLGGYSYSSTGTAFGGGTKVEIKRTVAAPSVFIFPPSDEQLKSGTASVECLLNNFYPREAKVQWKVDNALQSGNSQESVTEQDSKDSTYSLSSTLTLSKADYEKHKVYACEVTHQGLSSPVTKSFNRGEC
heavy 2: EVQLVESGGGLVQPGGSLRLSCAASGFSLSSYGVTWVRKAPGKGLEWIGYITSVYGVSYYASWAKSRSTISRDTSKNTVYLQMGSLRAEDMAVYYCARENPDYGYAYDAWGQGTTVTVSSASTKGPSVFPLAPSSKSTSGGTAALGCLVKDYFPEPVTVSWNSGALTSGVHTFPAVLQSSGLYSLESVVTVPSSSLGTQTYICNVNHKPSNTKVDKKVEPKSCDKTHTCPPCPAPELLGGPSVFLFPPKPKDTLMISRTPEVTCVVVDVSHEDPEVKFNWYVDGVEVHNAKTKPREEQYGSTYRVVSVLTVLHQDWLNGKEYKCKVSNKALPAPIEKTISKAKGQPREPQVYTLPPSREEMTKNQVSLSCAVKGFYPSDIAVEWESNGQPENNYKTTPPVLDSDGSFFLVSKLTVDKSRWQQGNVFSCSVMHEALHNHYTQKSLSLSPGK
light 2: AIRMTQSPSSFSASTGDRVTITCQASESISNELSWYQEKPGKAPKLLIYYASTLASGVPSRFSGSGSGTDFTLTISSLQPEDFATYYCAQGYGSSGVENVFGGGTKVEIKRTVAAPSVFIFPPSDEQLKSGTASVKCLLNNFYPREAKVQWKVDNALQSGNSQESVTEQDSKDSTYSLSSTLTLSKADYEKHKVYACEVTHQGLSSPVTKSFNRGEC
notes: hIgG1 N297G knob-in-hole bispecific with Q39E/Q38K, Q39K/Q38E, S183K/V133E and S183E/V133K pairing mutations; also called anti-KLK5/KLK7 bispecific antibody without M428L/N434S
B4: hu.10C5VY.hu14H11c.L2H11 LS (bispecific antibody, human IgG1, kappa, N297G)
heavy 1: EQQLVESGGGLIQPGGSLRLSCAASGFSFSSSYYMSWVREAPGKGLEWVSSIYAGSSGAPYYAGWAKGRFTISRDNSKNTLYLQMNSLRAEDTAVYYCAREGFAETGGYGYAAYFNLWGPGTLVTVSSASTKGPSVFPLAPSSKSTSGGTAALGCLVKDYFPEPVTVSWNSGALTSGVHTFPAVLQSSGLYSLKSVVTVPSSSLGTQTYICNVNHKPSNTKVDKKVEPKSCDKTHTCPPCPAPELLGGPSVFLFPPKPKDTLMISRTPEVTCVVVDVSHEDPEVKFNWYVDGVEVHNAKTKPREEQYGSTYRVVSVLTVLHQDWLNGKEYKCKVSNKALPAPIEKTISKAKGQPREPQVYTLPPSREEMTKNQVSLWCLVKGFYPSDIAVEWESNGQPENNYKTTPPVLDSDGSFFLYSKLTVDKSRWQQGNVFSCSVLHEALHSHYTQKSLSLSPGK
light 1: DIQMTQSPSSLSASVGDRVTITCLASEDIASSVSWYQKKPGKAPKLLIYGASNLESGVPSRFSGSGSGTDYTLTISSLQPEDFATYYCLGGYSYSSTGTAFGGGTKVEIKRTVAAPSVFIFPPSDEQLKSGTASVECLLNNFYPREAKVQWKVDNALQSGNSQESVTEQDSKDSTYSLSSTLTLSKADYEKHKVYACEVTHQGLSSPVTKSFNRGEC
heavy 2: EVQLVESGGGLVQPGGSLRLSCAASGFSLSSYGVTWVRKAPGKGLEWIGYITSVYGVSYYASWAKSRSTISRDTSKNTVYLQMGSLRAEDMAVYYCARENPDYGYAYDAWGQGTTVTVSSASTKGPSVFPLAPSSKSTSGGTAALGCLVKDYFPEPVTVSWNSGALTSGVHTFPAVLQSSGLYSLESVVTVPSSSLGTQTYICNVNHKPSNTKVDKKVEPKSCDKTHTCPPCPAPELLGGPSVFLFPPKPKDTLMISRTPEVTCVVVDVSHEDPEVKFNWYVDGVEVHNAKTKPREEQYGSTYRVVSVLTVLHQDWLNGKEYKCKVSNKALPAPIEKTISKAKGQPREPQVYTLPPSREEMTKNQVSLSCAVKGFYPSDIAVEWESNGQPENNYKTTPPVLDSDGSFFLVSKLTVDKSRWQQGNVFSCSVLHEALHSHYTQKSLSLSPGK
light 2: AIRMTQSPSSFSASTGDRVTITCQASESISNELSWYQEKPGKAPKLLIYYASTLASGVPSRFSGSGSGTDFTLTISSLQPEDFATYYCAQGYGSSGVENVFGGGTKVEIKRTVAAPSVFIFPPSDEQLKSGTASVKCLLNNFYPREAKVQWKVDNALQSGNSQESVTEQDSKDSTYSLSSTLTLSKADYEKHKVYACEVTHQGLSSPVTKSFNRGEC
notes: hIgG1 N297G knob-in-hole bispecific with M428L/N434S and the chain pairing mutations; also called anti-KLK5/KLK7 bispecific antibody with M428L/N434S (LS)
B5: hu.14H11c.L2H11-hIgG1 (antibody, V domains shown)
VH: EQQLVESGGGLIQPGGSLRLSCAASGFSFSSSYYMSWVRQAPGKGLEWVSSIYAGSSGAPYYAGWAKGRFTISRDNSKNTLYLQMNSLRAEDTAVYYCAREGFAETGGYGYAAYFNLWGPGTLVTVSS
VL: DIQMTQSPSSLSASVGDRVTITCLASEDIASSVSWYQQKPGKAPKLLIYGASNLESGVPSRFSGSGSGTDYTLTISSLQPEDFATYYCLGGYSYSSTGTAFGGGTKVEIK
notes: Humanized anti-KLK7 antibody, human IgG1
B6: One-armed hu.14H11c.L2H11-hIgG1 knob-in-hole (antibody)
heavy: not shown
VL: DIQMTQSPSSLSASVGDRVTITCLASEDIASSVSWYQKKPGKAPKLLIYGASNLESGVPSRFSGSGSGTDYTLTISSLQPEDFATYYCLGGYSYSSTGTAFGGGTKVEIK
chain: DKTHTCPPCPAPELLGGPSVFLFPPKPKDTLMISRTPEVTCVVVDVSHEDPEVKFNWYVDGVEVHNAKTKPREEQYGSTYRVVSVLTVLHQDWLNGKEYKCKVSNKALPAPIEKTISKAKGQPREPQVYTLPPSREEMTKNQVSLSCAVKGFYPSDIAVEWESNGQPENNYKTTPPVLDSDGSFFLVSKLTVDKSRWQQGNVFSCSVMHEALHNHYTQKSLSLSPGK
notes: Monovalent one-armed format

Columns and labels:
human KLK5 [1] = target: T1, human KLK5; assay: cell-based or functional assay
[2] = target: human KLK7 (SEQ ID NO: 4 plus a C-terminal FLAG tag) (human, UniProt P49862 30-253); assay: cell-based or functional assay
Chain of human KLK7 (SEQ ID NO: 4 plus a C-terminal FLAG tag) (P49862 30-253): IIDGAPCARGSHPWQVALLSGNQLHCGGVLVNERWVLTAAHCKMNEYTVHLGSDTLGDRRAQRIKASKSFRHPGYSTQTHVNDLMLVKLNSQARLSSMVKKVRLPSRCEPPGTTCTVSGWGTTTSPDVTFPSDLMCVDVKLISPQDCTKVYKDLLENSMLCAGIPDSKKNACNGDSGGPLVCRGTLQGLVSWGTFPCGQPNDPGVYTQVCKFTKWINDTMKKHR

cynomolgus monkey KLK5 [3] = target: T2, cynomolgus monkey KLK5; assay: cell-based or functional assay
[4] = target: cyano KLK7 (SEQ ID NO: 6 plus a C-terminal FLAG tag) (cynomolgus monkey, UniProt P49862 30-253 (human entry)); assay: cell-based or functional assay
Chain of cyano KLK7 (SEQ ID NO: 6 plus a C-terminal FLAG tag) (P49862 other isoform, or with tags, fused parts or gaps): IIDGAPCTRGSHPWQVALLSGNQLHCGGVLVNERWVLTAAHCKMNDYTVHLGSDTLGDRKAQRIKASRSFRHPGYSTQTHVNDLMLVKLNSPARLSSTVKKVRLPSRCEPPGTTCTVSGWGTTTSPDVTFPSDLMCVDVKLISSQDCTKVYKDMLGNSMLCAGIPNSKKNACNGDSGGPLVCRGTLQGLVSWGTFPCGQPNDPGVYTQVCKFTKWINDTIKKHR

human KLK7 [5] = target: T3, human KLK7 (human, UniProt P49862 30-253); assay: SPR BIAcore 8K, antibody on protein A chip, 37 C
T3 construct: Antigen injected in SPR; also called hu KLK7; huKLK7
T3 sequence (P49862 30-253): as the sequence (P49862 30-253) above
Procedure: The binding affinity of the humanized antibodies was determined by BIAcore™ 8K SPR system. For kinetics measurements, antibodies were captured on research grade protein A chip (GE Healthcare) to achieve approximately 300 RU. Ten-fold serial dilutions of human KLK7 were injected in HBS-P buffer at 37° C. with a flow rate of 100 μL/min. Association rates (ka) and dissociation rates (kd) were calculated using a 1:1 Langmuir binding model (BIAcore Insight Evaluation Software version 2.0). The equilibrium dissociation constant (KD) was calculated as the ratio kd/ka.

human KLK7 [6] = target: T3, human KLK7; assay: kinetics of bispecific antibody, method not restated (SPR implied)
cynomolgus monkey KLK7 = target: T4, cynomolgus monkey KLK7 (cynomolgus monkey, UniProt P49862 30-253 (human entry)); assay: as above
T4 construct: Antigen injected in SPR; also called Cy KLK7; cyno KLK7
T4 sequence (P49862 other isoform, or with tags, fused parts or gaps): as the sequence (P49862 other isoform, or with tags, fused parts or gaps) above

cynomolgus monkey KLK5 [7] = target: T2, cynomolgus monkey KLK5; assay: as above
human KLK5 [8] = target: T1, human KLK5; assay: as above

Row | Binder | IC50, KLK5 direct functional assay (Boc-Val-Pro-Arg-AMC), bivalency corrected (human KLK5 [1]) | IC50, KLK7 direct functional assay (Mca-RPKPVE-Nval-WRK(Dnp)), bivalency corrected [2] | IC50, KLK5 direct functional assay (Boc-Val-Pro-Arg-AMC), bivalency corrected (cynomolgus monkey KLK5 [3]) | IC50, KLK7 direct functional assay (Mca-RPKPVE-Nval-WRK(Dnp)), bivalency corrected [4] | Kd (human KLK7 [5]) | koff (human KLK7 [5]) | kon (human KLK7 [5]) | Kd (human KLK7 [6]) | koff (human KLK7 [6]) | kon (human KLK7 [6]) | Kd (cynomolgus monkey KLK7) | koff (cynomolgus monkey KLK7) | kon (cynomolgus monkey KLK7) | Kd (cynomolgus monkey KLK5 [7]) | koff (cynomolgus monkey KLK5 [7]) | kon (cynomolgus monkey KLK5 [7]) | Kd (human KLK5 [8]) | koff (human KLK5 [8]) | kon (human KLK5 [8])
1 | B1 | 0.46 nM | > 10 nM | 0.56 nM | > 10 nM | – | – | – | – | – | – | – | – | – | – | – | – | – | – | –
2 | B2 | – | – | – | – | < 0.001 nM | < 1e-06 s⁻¹ | 2.16e+07 M⁻¹ s⁻¹ | – | – | – | – | – | – | – | – | – | – | – | –
3 | B3 | 0.67 nM | 0.37 nM | 0.73 nM | 0.37 nM | – | – | – | < 0.001 nM | < 1e-06 s⁻¹ | 5.8e+07 M⁻¹ s⁻¹ | 0.0023 nM | 9e-05 s⁻¹ | 4e+07 M⁻¹ s⁻¹ | 0.019 nM | 0.00019 s⁻¹ | 1e+07 M⁻¹ s⁻¹ | 0.0008 nM | 1.5e-05 s⁻¹ | 2.1e+07 M⁻¹ s⁻¹
4 | B4 | 0.54 nM | 0.34 nM | 0.58 nM | 0.36 nM | – | – | – | 0.00024 nM | 1.4e-05 s⁻¹ | 5.7e+07 M⁻¹ s⁻¹ | 0.003 nM | 7e-05 s⁻¹ | 3e+07 M⁻¹ s⁻¹ | 0.016 nM | 0.00018 s⁻¹ | 1.11e+07 M⁻¹ s⁻¹ | 0.0015 nM | 1.97e-05 s⁻¹ | 1.5e+07 M⁻¹ s⁻¹
5 | B5 | > 10 nM | 0.29 nM | > 10 nM | 0.29 nM | 0.000356 nM | 1.22e-05 s⁻¹ | 3.43e+07 M⁻¹ s⁻¹ | – | – | – | – | – | – | – | – | – | – | – | –
6 | B6 | – | – | – | – | 0.000894 nM | 2.52e-05 s⁻¹ | 2.82e+07 M⁻¹ s⁻¹ | – | – | – | – | – | – | – | – | – | – | – | –
